According to article PMC10245973:

Molecular target: Prunus persica WEEP protein (PpeWEEP), 6xHis-MBP-PpeWEEP-StrepTagII fusion protein (Prunus persica (peach))
Test: SEC

Prunus persica WEEP protein (PpeWEEP), 6xHis-MBP-PpeWEEP-StrepTagII fusion protein (natural protein)
stoichiometry N: 8.7 mer
